Measurements published in paper PMC10397247.
Each block holds one binder with its values, some of them ahead of it.

Columns and labels:
4H3858-bN = biological target: T1, 4H3858-bN; assay: two-hybrid library CCNG1;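 further: natural log of median RNA to DNA barcode read ratio; higher means stronger binding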
T1 chain: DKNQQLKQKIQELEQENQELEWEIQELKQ

4H3631-bN = biological target: T2, 4H3631-bN; assay: two-hybrid library CCNG1;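 further: natural log of median RNA to DNA barcode read ratio; higher means stronger binding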
T2 chain: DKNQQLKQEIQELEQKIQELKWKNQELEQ

4H1985-bN = biological target: T3, 4H1985-bN; assay: two-hybrid library CCNG1;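 further: natural log of median RNA to DNA barcode read ratio; higher means stronger binding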
T3 chain: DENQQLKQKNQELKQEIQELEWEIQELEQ

4H3638-bN = biological target: T4, 4H3638-bN; assay: two-hybrid library CCNG1;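 further: natural log of median RNA to DNA barcode read ratio; higher means stronger binding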
T4 chain: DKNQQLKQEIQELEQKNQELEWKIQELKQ

4H1804-bN = biological target: T5, 4H1804-bN; assay: two-hybrid library CCNG1
T5 chain: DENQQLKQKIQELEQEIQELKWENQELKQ

4H1222-bN = biological target: T6, 4H1222-bN; assay: two-hybrid library CCNG1
T6 chain: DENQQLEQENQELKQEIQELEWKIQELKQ

4H3974-bN = biological target: T7, 4H3974-bN; assay: two-hybrid library CCNG1
T7 chain: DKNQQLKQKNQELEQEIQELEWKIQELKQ

4H3817-bA = biological target: T8, 4H3817-bA; assay: two-hybrid library CCNG1
T8 chain: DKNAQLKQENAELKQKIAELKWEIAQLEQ

4H3129-bN = biological target: T9, 4H3129-bN; assay: two-hybrid library CCNG1
T9 chain: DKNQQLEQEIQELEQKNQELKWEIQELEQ

4H570-bN = biological target: T10, 4H570-bN; assay: two-hybrid library CCNG1
T10 chain: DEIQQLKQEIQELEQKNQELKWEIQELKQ

4H850-bN = biological target: T11, 4H850-bN; assay: two-hybrid library CCNG1
T11 chain: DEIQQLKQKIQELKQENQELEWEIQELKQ

4H1393-bN = biological target: T12, 4H1393-bN; assay: two-hybrid library CCNG1
T12 chain: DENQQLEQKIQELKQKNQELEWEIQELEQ

4H3926-bN = biological target: T13, 4H3926-bN; assay: two-hybrid library CCNG1
T13 chain: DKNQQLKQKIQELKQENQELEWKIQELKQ

4H619-bN = biological target: T14, 4H619-bN; assay: two-hybrid library CCNG1
T14 chain: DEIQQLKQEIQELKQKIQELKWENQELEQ

4H3414-bN = biological target: T15, 4H3414-bN; assay: two-hybrid library CCNG1
T15 chain: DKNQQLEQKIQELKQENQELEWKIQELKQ

4H1338-bN = biological target: T16, 4H1338-bN; assay: two-hybrid library CCNG1
T16 chain: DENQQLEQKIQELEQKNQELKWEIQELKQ

4H906-bN = biological target: T17, 4H906-bN; assay: two-hybrid library CCNG1
T17 chain: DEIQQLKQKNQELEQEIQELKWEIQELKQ

4H1348-bN = biological target: T18, 4H1348-bN; assay: two-hybrid library CCNG1
T18 chain: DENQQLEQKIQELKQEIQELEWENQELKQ

4H3172-bN = biological target: T19, 4H3172-bN; assay: two-hybrid library CCNG1
T19 chain: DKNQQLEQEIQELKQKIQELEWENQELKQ

4H1710-bN = biological target: T20, 4H1710-bN; assay: two-hybrid library CCNG1
T20 chain: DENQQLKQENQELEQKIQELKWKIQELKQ

4H3817-bN = biological target: T21, 4H3817-bN; assay: two-hybrid library CCNG1
T21 chain: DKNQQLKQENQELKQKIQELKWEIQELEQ

O9-bH = biological target: T22, O9-bH; assay: two-hybrid library CCNG1
T22 chain: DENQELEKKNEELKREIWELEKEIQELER

4H1899-bN = biological target: T23, 4H1899-bN; assay: two-hybrid library CCNG1
T23 chain: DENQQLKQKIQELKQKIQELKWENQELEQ

4H1544-bN = biological target: T24, 4H1544-bN; assay: two-hybrid library CCNG1
T24 chain: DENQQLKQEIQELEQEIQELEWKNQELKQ

4H3613-bN = biological target: T25, 4H3613-bN; assay: two-hybrid library CCNG1
T25 chain: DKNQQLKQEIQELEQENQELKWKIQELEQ

4H363-bN = biological target: T26, 4H363-bN; assay: two-hybrid library CCNG1
T26 chain: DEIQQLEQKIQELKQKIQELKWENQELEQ

4H3628-bN = biological target: T27, 4H3628-bN; assay: two-hybrid library CCNG1
T27 chain: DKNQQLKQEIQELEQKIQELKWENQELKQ

4H1629-bN = biological target: T28, 4H1629-bN; assay: two-hybrid library CCNG1
T28 chain: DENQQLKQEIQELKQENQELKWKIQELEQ

4H584-bN = biological target: T29, 4H584-bN; assay: two-hybrid library CCNG1
T29 chain: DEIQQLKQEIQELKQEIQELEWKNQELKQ

4H1359-bN = biological target: T30, 4H1359-bN; assay: two-hybrid library CCNG1
T30 chain: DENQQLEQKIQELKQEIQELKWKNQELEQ

4H1449-bN = biological target: T31, 4H1449-bN; assay: two-hybrid library CCNG1
T31 chain: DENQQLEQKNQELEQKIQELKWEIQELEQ

4H1373-bN = biological target: T32, 4H1373-bN; assay: two-hybrid library CCNG1
T32 chain: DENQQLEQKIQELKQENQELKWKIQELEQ

Core_NINN-es_KEEE = biological target: T33, Core_NINN-es_KEEE; assay: two-hybrid library CCmax; details: mean of both orientations
T33 chain: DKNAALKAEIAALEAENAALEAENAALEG

4H2883-bH = biological target: T34, 4H2883-bH; assay: two-hybrid library CCNG1
T34 chain: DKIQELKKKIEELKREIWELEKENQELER

4H19-bH = biological target: T35, 4H19-bH; assay: two-hybrid library CCNG1
T35 chain: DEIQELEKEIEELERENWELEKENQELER

4H48-bH = biological target: T36, 4H48-bH; assay: two-hybrid library CCNG1
T36 chain: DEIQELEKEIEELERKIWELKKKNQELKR

4H342-bH = biological target: T37, 4H342-bH; assay: two-hybrid library CCNG1
T37 chain: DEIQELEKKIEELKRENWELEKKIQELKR

4H2937-bH = biological target: T38, 4H2937-bH; assay: two-hybrid library CCNG1
T38 chain: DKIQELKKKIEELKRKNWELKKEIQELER

4H491-bH = biological target: T39, 4H491-bH; assay: two-hybrid library CCNG1
T39 chain: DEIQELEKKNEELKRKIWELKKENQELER

4H2696-bH = biological target: T40, 4H2696-bH; assay: two-hybrid library CCNG1
T40 chain: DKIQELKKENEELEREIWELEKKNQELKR

4H2944-bH = biological target: T41, 4H2944-bH; assay: two-hybrid library CCNG1
T41 chain: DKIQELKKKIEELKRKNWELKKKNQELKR

Core_INNN-es_KEEE = biological target: T42, Core_INNN-es_KEEE; assay: two-hybrid library CCmax; details: mean of both orientations
T42 chain: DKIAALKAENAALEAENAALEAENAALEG

4H319-bH = biological target: T43, 4H319-bH; assay: two-hybrid library CCNG1
T43 chain: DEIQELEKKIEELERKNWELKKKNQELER

4H2717-bH = biological target: T44, 4H2717-bH; assay: two-hybrid library CCNG1
T44 chain: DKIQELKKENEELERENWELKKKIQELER

4H492-bH = biological target: T45, 4H492-bH; assay: two-hybrid library CCNG1
T45 chain: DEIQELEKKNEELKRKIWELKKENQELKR

4H741-bH = biological target: T46, 4H741-bH; assay: two-hybrid library CCNG1
T46 chain: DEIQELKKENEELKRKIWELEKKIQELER

4H2223-bH = biological target: T47, 4H2223-bH; assay: two-hybrid library CCNG1
T47 chain: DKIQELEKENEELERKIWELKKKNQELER

4H477-bH = biological target: T48, 4H477-bH; assay: two-hybrid library CCNG1
T48 chain: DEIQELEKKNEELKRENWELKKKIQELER

4H2588-bH = biological target: T49, 4H2588-bH; assay: two-hybrid library CCNG1
T49 chain: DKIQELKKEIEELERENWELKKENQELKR

4H348-bH = biological target: T50, 4H348-bH; assay: two-hybrid library CCNG1
T50 chain: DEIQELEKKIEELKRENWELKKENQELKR

4H2915-bH = biological target: T51, 4H2915-bH; assay: two-hybrid library CCNG1
T51 chain: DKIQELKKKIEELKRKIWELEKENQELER

4H182-bH = biological target: T52, 4H182-bH; assay: two-hybrid library CCNG1
T52 chain: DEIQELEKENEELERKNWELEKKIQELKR

4H2143-bH = biological target: T53, 4H2143-bH; assay: two-hybrid library CCNG1
T53 chain: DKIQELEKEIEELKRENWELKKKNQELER

4H40-bH = biological target: T54, 4H40-bH; assay: two-hybrid library CCNG1
T54 chain: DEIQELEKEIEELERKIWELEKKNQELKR

4H3057-bH = biological target: T55, 4H3057-bH; assay: two-hybrid library CCNG1
T55 chain: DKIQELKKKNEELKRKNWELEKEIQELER

4H2134-bH = biological target: T56, 4H2134-bH; assay: two-hybrid library CCNG1
T56 chain: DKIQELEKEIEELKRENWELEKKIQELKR

4H2438-bH = biological target: T57, 4H2438-bH; assay: two-hybrid library CCNG1
T57 chain: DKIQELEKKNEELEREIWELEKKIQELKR

4H3277-bH = biological target: T58, 4H3277-bH; assay: two-hybrid library CCNG1
T58 chain: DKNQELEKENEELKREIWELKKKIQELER

4H121-bH = biological target: T59, 4H121-bH; assay: two-hybrid library CCNG1
T59 chain: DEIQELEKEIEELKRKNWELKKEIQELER

4H2692-bH = biological target: T60, 4H2692-bH; assay: two-hybrid library CCNG1
T60 chain: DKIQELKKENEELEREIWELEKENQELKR

4H2839-bH = biological target: T61, 4H2839-bH; assay: two-hybrid library CCNG1
T61 chain: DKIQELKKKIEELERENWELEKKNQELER

4H2503-bH = biological target: T62, 4H2503-bH; assay: two-hybrid library CCNG1
T62 chain: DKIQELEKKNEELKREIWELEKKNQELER

4H2473-bH = biological target: T63, 4H2473-bH; assay: two-hybrid library CCNG1
T63 chain: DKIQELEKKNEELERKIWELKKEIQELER

interaction score (4H3858-bN): -0.767
interaction score (4H3631-bN): 0.357
interaction score (4H1985-bN): -2.04
interaction score (4H3638-bN): 0.921
interaction score (4H1804-bN): 0.407
interaction score (4H1222-bN): -1.63
interaction score (4H3974-bN): -0.957
interaction score (4H3817-bA): 1.4
interaction score (4H3129-bN): -0.201
interaction score (4H570-bN): -0.0662
interaction score (4H850-bN): 0.741
interaction score (4H1393-bN): -0.718
interaction score (4H3926-bN): 0.755
interaction score (4H619-bN): -0.785
interaction score (4H3414-bN): 0.105
interaction score (4H1338-bN): 0.344
interaction score (4H906-bN): -1.3
interaction score (4H1348-bN): -2.2
interaction score (4H3172-bN): -0.0903
interaction score (4H1710-bN): 0.715
interaction score (4H3817-bN): 2.15
interaction score (O9-bH): 1.11
interaction score (4H1899-bN): -0.657
interaction score (4H1544-bN): -1.38
interaction score (4H3613-bN): 0.482
interaction score (4H363-bN): -0.189
interaction score (4H3628-bN): -0.764
interaction score (4H1629-bN): 0.612
interaction score (4H584-bN): -0.959
interaction score (4H1359-bN): 0.554
interaction score (4H1449-bN): -0.277
interaction score (4H1373-bN): -0.0597
Binder: DENQQLEQENQELKQEIQELEWKIQELKQ [4H1222-bN]

interaction score (Core_NINN-es_KEEE): 2.12
Binder: DENAALEAKIAALKAKNAALKAKNAALKG [Core_NINN-es_EKKK]

interaction score (4H2883-bH): 1.05
interaction score (4H19-bH): -0.777
interaction score (4H48-bH): -1.56
interaction score (4H342-bH): -0.785
interaction score (4H2937-bH): 0.634
interaction score (4H491-bH): 0.299
interaction score (4H2696-bH): 0.41
interaction score (4H2944-bH): 1.17
Binder: DEIQELEKEIEELERENWELEKENQELER [4H19-bH]

interaction score (Core_INNN-es_KEEE): 1.79
Binder: DEIAALEAKNAALKAKNAALKAKNAALKG [Core_INNN-es_EKKK]

interaction score (4H319-bH): -1.11
interaction score (4H2717-bH): 0.068
interaction score (4H492-bH): -0.574
interaction score (4H741-bH): -0.43
interaction score (4H2223-bH): 1.48
interaction score (4H477-bH): -1.3
interaction score (4H2588-bH): -1.11
interaction score (4H348-bH): -0.636
interaction score (4H2915-bH): 0.235
interaction score (4H182-bH): 0.0625
interaction score (4H2143-bH): 0.472
interaction score (4H40-bH): -1.44
interaction score (4H3057-bH): 0.547
interaction score (4H2134-bH): 1.11
interaction score (4H2438-bH): 1.45
interaction score (4H3277-bH): -0.678
interaction score (4H121-bH): -0.364
interaction score (4H2692-bH): 0.482
interaction score (4H2839-bH): 1.02
interaction score (4H2503-bH): -0.913
interaction score (4H2473-bH): -0.404
Binder: DEIQELEKEIEELKRKNWELKKEIQELER [4H121-bH]
